# Results taken from a protein production outcome set (Wang et al. 2014).
# Assay: label from the status in PepcDB records
row,Sequence,protein production
1,MKRTLYSGVGLLLVGLLFLAFNLLSSLLLRDQQFDLTQQKLYTFSAGTQEVLDSLDEPLNLYLFFSKSRASDLPALRNYARRVEEVLDLYARRSHGNVRLFVIDPLPFSDDEDRAARFGLQAPPIGPNGEAIYFGLAATNPTDGLQVIPFFSPEEEPLLEYDLSRLVQALAQRERTVVGLMSSLPMTGQAPTDGQPGSRPWAMMDKLYQQFDIRTLGLASTEIPAEVSVLMLVHPRQLSEQTQYAIDQFVLRGGKLLAFVDPLSLADADGGKSSDLAPLLRSWGVQLRPDTLLADASFAMIKPNAERRPERNPTWLHLPGDTFPHDNVLTTGLESLNLASVGLLEPLGGASTRFIPLLHSSAHSMPLSLERFRQSSTEQLNATLVPTGERYVLAAKVEGPATSAFPADRGKQGEGLSDSANIHVLLVADTDLLSNPLWLQEQPGHNEPQVWADNDLFVGNALDYLSGSDALIDLRSRGHTKRPFTRVEALRREAGLRAQEQLNALQQSLNDTDRNLRTLQQSMDAGDQEVTPEMEATLRRFIDDKLRIRQQLRQLQFQLNADVERLGEQVKLANTVLLPALLTLFLLLHWSWRSMRRRRG,failed
2,MKLVWSPETASKAYIDTVKSCENLETPDAAELIAAMAAGWNVKLIVETWSEGDAIASSIGLNVASKHANAKHICIVQNSRSESAYLQAIQESSSPLNFPETIVAEEPGKAMKKLQGVDFLVVDWRNKEFAAAALKNAAFGNRGAVVVCRNGYSSLRRVLRDRKVVRTVTLPVTGGIEIAHVAARNSGKSGNNKRRWITHVDQRSGEEHVFSI,failed
3,MAEIIDKTLNMLVTGQRARVIQIKGKGNSRKRLLEMGMVPGTVLSVTKKAPLGDPVDFKLKGYNLSLRKQEAEMIVVEPLEG,failed
4,MRDYVEIGMGREARRTYHLDSVAIVPSRRTRSSKDVDTTWHIDAYTFDIPFMSHPTDALATPDFVIEMDKQGGLGVINAEGLWGRHADLDAAIQEVITAYGDDELDLGSCNRATKKLQELHAAALDTELLVERIAQVRSSGAT,failed
5,IKNFLYAWCGKRKMTPAYEIRAVGNKNRQKFMCEVRVEGFNYAGMGNSTNKKDAQSNAARDFVNYLVRINEVKSEEVPAVGIVPPP,not failed
6,MKKGIQPLKWKDVPALAVLGFFSVTLHHLLINTGQQYVTAVASSILSQSIPLFTFIISALLFKEQISFKQWLCILLGLCGAVLVVSGDHGFGMPSPYSLLIVLAAIAWGLYFNLYKKFALNYDALSMMCYIIWFGTLPLLFYSAHLPSEILHATWQANMSVVLLGIFPSAMAYVLWGYVLKNMPLTIASNFLYCSPIVAMSLAVLFLNEKPSIIVLLGGVIIVGSLVWMNWGRKK,failed
7,MSIESSATPTTPNAEALQLNSTEVRILGCLIEKQATNPETYPLTLNALVIACNQKTSRDPVMNLTQGQVGQSLRALEGRGLTRLVMGSRADRWEHKVDKGLELVPAQVILTGLLLLRGPQTVSELLTRSNRMHDFEDSEQVVHQLERLIARGLATLVPRQSGQREDRYMHLIGDPEDLQD,not failed
8,MPEGHRATAIYFRHLLLIRVEIENIVNTLAICRHTFYISSLSLPCNLNKLIIMENLQSNLFYSLAGVAAVASLASCTNKQKTTEQKPLNIVYIMTDDHTAQMMSCYDTRYMETPNLDRIAADGVRFTQSFVANSLSGPSRACMITGKHSCANKFYDNTTCVFDSSQQTFPKLLQKVGYQTALVGKWHLESLPSGFNYWQIVPGQGDYYNPAFITQDNDTIQKHGYITNLITDDAIDWMENKRDPEKPFCLLIHHKAIHRNWMADTCNLALYEDKTFPLPDNFFDDYEGRPAAAAQEMSIVKDMDMIYDLKMLRPNEKSRLRSLYERFLGRMDEGQRAAWDKFYAPIIDDFYKQNLTGKELANWKFQRYMRDYMKTVKSLDDNVGRVLDYLKEKGLLDNTLVVYTSDQGFYMGEHGWFDKRFMYEESMRTPLIMRLPKGFDRRGDITEMVQNIDYAPTFLELAGAEIPADIHGVSLLPLLKGEHPKDWRKSLYYHFYEYPAEHMVKRHYGVRTERYKLIHFYNDINWWELYDMQADPSEMHNLYGEAEYEPVVKELKDELLKLQEQYNDPVRFSPERDKE,failed
9,MHFCFISSISKIIDRYEIQHADELRALDLEEKIQNYLPHKELLETVQRLAVRHIFLPSSSDKKNVFFLLSTCEYSKLEEPNVDNVSVDSLISLEEQLETALSVSRARKAELMMEYIESLKEKVSALVFIFDKGHILGYDDS,failed
10,MKAELIAVGTEILTGQIVNTNAQFLSEKMAELGIDVYFQTAVGDNEERLLSVITTASQRSNLVILCGGLGPTKDDLTKQTLAKYLRKDLVYDEQACQKLDDFFAKRKPSSRTPNNERQAQVIEGSIPLPNKTGLAVGGFITVDGISYVVLPGPPSELKPMVNEELVPLLSKQYSTLYSKVLRFFGIGESQLVTVLSDFIENQTDPTIAPYAKTGEVTLRLSTKTE,failed
11,MSLTARSVVLSVLLGAHPAWATASELIQLTADFGIKETTLRVALTRMVGAGDLVRSADGYRLSDRLLARQRRQDEAMRPRTRAWHGNWHMLIVTSIGTDARTRAALRTCMHHKRFGELREGVWMRPDNLDLDLESDVAARVRMLTARDEAPADLAGQLWDLSGWTEAGHRLLGDMAAATDMPGRFVVAAAMVRHLLTDPMLPAELLPADWPGAGLRAAYHDFATAMAKRRDATQLLEVTEGHHHHHH,not failed
12,GSSGSSGGYFDAHALAMDYRSLGFRECLAEVARYLSIIEGLDASDPLRVRLVSHLNNYASQREASGPSSG,not failed
13,VTRRIAICAPSTPFTREDSARVIALAAAEFPDLSLSFHEQCFASEGHFAGSDALRLSAFLECANDDAFEAVWFVRGGYGANRIAEDALARLGRAASAKQYLGYSDAGTLLAALYAHRIGRSVHAPMPVDIRRPEGESAVRRTLGWLAGAREGLEPTLGAGAPAVAFNLMTLAMLCGTRLLPDLSGHVVMIEEVAEHHYAVDRLLFHVTSCLADAGIAGLRLGRVSDVPENDRPFGCSVEEMARHWCHRAGIAFLGTADIGHDVDNRIVPFGLA,not failed
14,MKQKSQMETRFVKPLSCLTLSIITTIGILPPATAQETSPAKSACEQVLSNAEQKPLTKQVQKLAQFADPQQERSQMIQQANALFSQGDLPGAEENLCKFLKKYSDDAFGHFQLGNVFFRGKKVEAAISAYQEAIRLRSRYAVAYNALGIVYASQSRWSEAIVQYQKALEINPDYGDALTNVALALWQTNKKDEALASLEKALNIFKKQNRNEKANQVEQLLQRIKNSDDNLS,failed
15,MQLGFAMLADPILLITILLGFAMAWAIGANDAANSMSTAVGAGAITPRQAVIIAGVLEFMGAYFFGKTVTETIRKGIIDPSKITDPNVLIFGSIAALIGATIWLVIATKYGLPVSTTHSIIGGIVGYGIVYGGMSIVNWDKMIKVVLSWILSPIVGAIFAYLVFRALSKTVLQSKDPVKSAKRWSPFWIGLAFVVIGTMFYIKVLHGNSLLEGFLKYGMPAGILTFIVVSLILEKRFPATDPYLGAERVFRRVQVITSAYVALAHGANDVANAIGPVAAVYTVAMFGLAGAKVPVPRWILALGGLGIAIGVATYGYKVMETVGKKITELTNTRGFTIDFSAATVVLIASWLGMPISTTHTVVGAVIGVGLARGIKAINKDIVKDIIISWFVTVPAAGVIAGIIFKALMMLMG,failed
16,MAVLVTGATGFIAQWVLDCLLKENYQVIGTVRSQEKGDKLHKQFGSPSKLSFEIVKDISDTEAFEPLFKKRGKEIDIVLHMASPCHFNTSDYEKDLLIPALNGTKGVLNAIKKYGDVKKVVVTSSYAAITDMVNSADGSLVFTEKDWNPATWERCQTDAVNAYCASKKFAEQAAWEFSKETGVSLTTINPVFVFGPQKFDEDVTSQLNTSNEIINGLIHSKPGDKLEPDYHSAYVDVRDVARAHLVAFQKDTTGERLGLSNGAFNCQSILDILNEKFPQLDITKGPEPGMGDTKPGAVFDNRHSKEVLAFPFISLEQCVYDTVAQVLKKEGRLLEHHHHHH,not failed
17,MGTNKQTALLPTVNQAITDGAVFGVSYSLLGPQENALHVIGYQGAGDDRLPLLPQARYDLASLTKVVGTTTRLLQLLIAGKLELTQPIGSLVSGLRYPQLTIEQLMLHRSGLPADVPDAHALDQAGLVHAVKTMAAVAAPDTETIYSDLNYIILGWAIAALDGDLATSLTQHIFAPLGMHATGYRPQHVAAADFVPTENVPARGGIIRGTVHDHKAFLLDGVSGHAGLFATLADLTIFTRLLAGLPVTNGDHVLPPAAFVLLDRFCKGGRTLGWRCWAQGRHQYWHTGFTGTSIAFDRDTQCGFVCLTNRIYPSRANRAWLAVRRQLLTQFFEVATSWPD,failed
18,FGNQKIFVCDARADWTNEFRTCSMFKNVHINRWYVITPSRNLRETQEFVQMCIRTASSMKMNICNPIYEEIPDDRNGTYSQAIDNAAANDPQIVMVVMRS,failed
